Test results as given in PMC11169713 (2024).

Key:
Assay in all cases: SPR
56.a.09 UCA = target: 56.a.09 UCA
56.a.09 mature = target: 56.a.09 mature
MEDI8852 mature = target: MEDI8852 mature
MEDI8852 UCA = target: MEDI8852 UCA

B1: 28H6E11 Fab (anti-idiotype antibody) (Fab, V domains shown)
VH: QVQLQQSGPEVVRPGVSVKISCKGSGYTFTDHAMHWVKQSHAKSLEWIGVFNTYNGDTNYNQKFEDKATMTIDKSSSTAYLELARLTSEDSAIYYCVRLGLLGFYALDYWGQGTSVTVSS
VL: DVLMTQTPLSLPVSLGDQASISCRSSQSIVHSNGNTYLEWYLQKPGQSPKLLIYKVSNRFSGVPDRFSGSGSGTDFTLKISRVEAEDLGVYYCFQGSHVPLTFGAGTKLELK
- Kd (56.a.09 UCA): 32500 nM
- Kd (56.a.09 mature): 496 nM
- Kd (MEDI8852 mature): 941 nM
- Kd (MEDI8852 UCA): 0.943 nM
